Tests used:
[1] = target: T1, p38α (MAPK14), nonphosphorylated (mouse, UniProt P47811 1-360); experiment: ITC
[2] = target: T2, dual (pThr180, pTyr182) phosphorylated p38α (mouse, UniProt P47811 1-360, phosphothreonine at 180, phosphotyrosine at 182); experiment: ITC; p38α dually phosphorylated
[3] = target: T1, p38α (MAPK14), nonphosphorylated; experiment: FP; displacement of fluorescein-labeled MKK3b peptide
[4] = target: T2, dual (pThr180, pTyr182) phosphorylated …; experiment: ITC; p38α dually phosphorylated; TAB1 pSer423

T1 sequence (P47811 whole entry): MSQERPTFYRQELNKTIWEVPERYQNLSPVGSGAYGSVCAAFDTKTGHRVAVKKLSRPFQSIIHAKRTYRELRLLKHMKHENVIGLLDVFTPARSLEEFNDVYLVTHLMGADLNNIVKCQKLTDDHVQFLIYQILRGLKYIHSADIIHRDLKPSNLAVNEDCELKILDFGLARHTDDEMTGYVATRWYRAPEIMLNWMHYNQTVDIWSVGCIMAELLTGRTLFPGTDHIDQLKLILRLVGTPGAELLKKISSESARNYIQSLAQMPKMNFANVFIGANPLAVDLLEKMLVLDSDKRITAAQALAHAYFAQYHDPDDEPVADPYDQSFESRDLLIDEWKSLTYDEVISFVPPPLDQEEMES
T2 sequence (P47811 whole entry): as above

B1: TAB1 (residues 384–412) peptide (peptide)
peptide: Ac-RVYPVSVPYSSAQSTSKTSVTLSLVMPSQ-NH2
**Q.** B1 was tested. Which Kd [1] did it give?
**A.** 2900 nM

**Q.** What about the Kd [2] of the same binder?
**A.** 2000 nM

**Q.** And the IC50 [3]?
**A.** 11000 nM

B2: TAB1 (residues 1–438) (domain or fragment)
chain: MAAQRRSLLQSEQQPSWTDDLPLCHLSGVGSASNRSYSADGKGTESHPPEDNWLKFRSENNCFLYGVFNGYDGNRVTNFVAQRLSAELLLGQLNTEHTEADVRRVLLQAFDVVERSFLESIDDALAEKASLQSQLPEGVPQHQLPPQYQKILERLKALEREISGGAMAVVAVLLNSKLYVANVGTNRALLCKSTVDGLQVTQLNMDHTTENEDELFRLSQLGLDAGKIKQMGVICGQESTRRIGDYKVKYGYTDIDLLSAAKSKPIIAEPEIHGAQPLDGVTGFLVLMSEGLYKALEAAHGPGQANQEIAAMIDTEFAKQTSLDAVAQAVVDRVKRIHSDTFASGGERAKFCPRHEDMTLLVRNFGYPLGEMSQPTPTPAPGGRVYPVSVPYSSAQSTSKTSVTLSLVMPSQGQMVNGSHSASTLDEATPTLTNQSPT
**Q.** How did the Kd [1] turn out when B2 was run?
**A.** 1500 nM

B3: TAB1 (residues 1–438) phosphorylated at Serine 423 (domain or fragment)
chain: MAAQRRSLLQSEQQPSWTDDLPLCHLSGVGSASNRSYSADGKGTESHPPEDNWLKFRSENNCFLYGVFNGYDGNRVTNFVAQRLSAELLLGQLNTEHTEADVRRVLLQAFDVVERSFLESIDDALAEKASLQSQLPEGVPQHQLPPQYQKILERLKALEREISGGAMAVVAVLLNSKLYVANVGTNRALLCKSTVDGLQVTQLNMDHTTENEDELFRLSQLGLDAGKIKQMGVICGQESTRRIGDYKVKYGYTDIDLLSAAKSKPIIAEPEIHGAQPLDGVTGFLVLMSEGLYKALEAAHGPGQANQEIAAMIDTEFAKQTSLDAVAQAVVDRVKRIHSDTFASGGERAKFCPRHEDMTLLVRNFGYPLGEMSQPTPTPAPGGRVYPVSVPYSSAQSTSKTSVTLSLVMPSQGQMVNGSHSASTLDEATPTLTNQSPT
modifications: phosphoserine at 423
**Q.** B3 was tested. Which Kd [4] did it give?
**A.** 1700 nM

B4: MKK3b peptide, unlabeled (peptide)
peptide: Ac-GKSKRKKDLRISCMSKP-NH2
**Q.** With B4 as the binder, how does the IC50 [3] read?
**A.** 15000 nM

— paper PMC6141180 (2018)
